Like-named read-outs stand apart in the source and are kept apart here. Values belong to the binder of their own block, whether it stands above or below them.
Assays:
[1] = target: T1, full-length human CD100 protein HuCD100 on cells (human, UniProt Q92854 22-862); assay: FACS; HuPBMC cells
[2] = target: T1, full-length human CD100 protein HuCD100 …; assay: FACS
[3] = target: T2, MusCD100-His (mouse, UniProt O09126 24-733); assay: ELISA; FIG. 5E
T2 chain: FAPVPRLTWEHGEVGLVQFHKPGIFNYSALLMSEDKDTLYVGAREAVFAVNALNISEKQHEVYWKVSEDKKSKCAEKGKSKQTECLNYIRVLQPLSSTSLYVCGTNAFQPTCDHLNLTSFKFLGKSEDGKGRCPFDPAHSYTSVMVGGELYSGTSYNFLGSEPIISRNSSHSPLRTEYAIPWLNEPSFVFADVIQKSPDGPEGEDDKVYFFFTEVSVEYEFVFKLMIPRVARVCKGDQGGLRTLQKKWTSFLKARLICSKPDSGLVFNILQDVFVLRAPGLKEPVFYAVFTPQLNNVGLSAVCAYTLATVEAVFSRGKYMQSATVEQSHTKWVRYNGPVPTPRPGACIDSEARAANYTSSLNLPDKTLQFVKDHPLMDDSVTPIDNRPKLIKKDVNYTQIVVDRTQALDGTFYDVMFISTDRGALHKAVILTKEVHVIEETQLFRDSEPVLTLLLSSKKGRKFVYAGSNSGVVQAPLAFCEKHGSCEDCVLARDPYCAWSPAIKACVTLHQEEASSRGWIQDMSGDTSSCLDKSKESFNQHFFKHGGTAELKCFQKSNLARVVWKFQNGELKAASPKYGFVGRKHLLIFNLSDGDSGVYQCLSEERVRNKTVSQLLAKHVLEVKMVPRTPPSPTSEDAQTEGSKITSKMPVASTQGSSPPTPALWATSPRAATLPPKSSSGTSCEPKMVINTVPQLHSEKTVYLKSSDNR

[4] = target: T3, HuCD100-Fc (in-house prepared) (human, UniProt Q92854 22-734, biotinylated in the Plexin binding and blocking assays (sites not given)); assay: FACS blocking; blocking of binding to HuPlexin-B1-HEK293
[5] = target: T4, MusCD100-Fc (mouse, UniProt O09126 24-733, biotinylated in the Plexin binding and blocking assays (sites not given)); assay: FACS blocking; MusPlexin-B1-HEK293, FIG. 12F
T4 chain: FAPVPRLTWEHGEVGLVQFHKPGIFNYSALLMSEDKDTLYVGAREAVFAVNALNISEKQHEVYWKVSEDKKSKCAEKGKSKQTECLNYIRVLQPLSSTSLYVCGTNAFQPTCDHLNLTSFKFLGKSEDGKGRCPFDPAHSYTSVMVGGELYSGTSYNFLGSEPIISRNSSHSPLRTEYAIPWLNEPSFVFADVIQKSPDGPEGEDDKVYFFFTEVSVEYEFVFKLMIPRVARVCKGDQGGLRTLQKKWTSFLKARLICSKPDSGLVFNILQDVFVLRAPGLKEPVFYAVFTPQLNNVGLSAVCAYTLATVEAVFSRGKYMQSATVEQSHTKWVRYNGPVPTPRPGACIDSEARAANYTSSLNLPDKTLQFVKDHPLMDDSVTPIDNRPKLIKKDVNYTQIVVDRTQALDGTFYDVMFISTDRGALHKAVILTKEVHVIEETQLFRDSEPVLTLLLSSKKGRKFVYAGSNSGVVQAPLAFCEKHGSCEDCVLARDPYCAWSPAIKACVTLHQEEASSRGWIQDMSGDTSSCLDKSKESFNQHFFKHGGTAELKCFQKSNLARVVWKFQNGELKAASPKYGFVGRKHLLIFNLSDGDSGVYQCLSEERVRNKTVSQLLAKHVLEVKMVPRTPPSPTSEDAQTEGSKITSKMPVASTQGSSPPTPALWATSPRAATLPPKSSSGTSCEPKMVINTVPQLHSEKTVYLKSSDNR

[6] = target: T3, HuCD100-Fc (in-house prepared); assay: FACS blocking; HuPlexin-B2-HEK293, FIG. 12D
[7] = target: CynoCD100-HEK293 (cynomolgus monkey); assay: FACS
[8] = target: CynoCD100-HEK293 (cynomolgus monkey); assay: FACS; remark: listed apart in the source
[9] = target: T1, full-length human CD100 protein HuCD100 …; assay: FACS binding; FIG. 11D
[10] = target: T1, full-length human CD100 protein HuCD100 …; assay: FACS; remark: listed apart in the source
[11] = target: T5, full-length mouse CD100 protein MusCD100 on cells (mouse, UniProt O09126 24-861); assay: FACS
T5 chain: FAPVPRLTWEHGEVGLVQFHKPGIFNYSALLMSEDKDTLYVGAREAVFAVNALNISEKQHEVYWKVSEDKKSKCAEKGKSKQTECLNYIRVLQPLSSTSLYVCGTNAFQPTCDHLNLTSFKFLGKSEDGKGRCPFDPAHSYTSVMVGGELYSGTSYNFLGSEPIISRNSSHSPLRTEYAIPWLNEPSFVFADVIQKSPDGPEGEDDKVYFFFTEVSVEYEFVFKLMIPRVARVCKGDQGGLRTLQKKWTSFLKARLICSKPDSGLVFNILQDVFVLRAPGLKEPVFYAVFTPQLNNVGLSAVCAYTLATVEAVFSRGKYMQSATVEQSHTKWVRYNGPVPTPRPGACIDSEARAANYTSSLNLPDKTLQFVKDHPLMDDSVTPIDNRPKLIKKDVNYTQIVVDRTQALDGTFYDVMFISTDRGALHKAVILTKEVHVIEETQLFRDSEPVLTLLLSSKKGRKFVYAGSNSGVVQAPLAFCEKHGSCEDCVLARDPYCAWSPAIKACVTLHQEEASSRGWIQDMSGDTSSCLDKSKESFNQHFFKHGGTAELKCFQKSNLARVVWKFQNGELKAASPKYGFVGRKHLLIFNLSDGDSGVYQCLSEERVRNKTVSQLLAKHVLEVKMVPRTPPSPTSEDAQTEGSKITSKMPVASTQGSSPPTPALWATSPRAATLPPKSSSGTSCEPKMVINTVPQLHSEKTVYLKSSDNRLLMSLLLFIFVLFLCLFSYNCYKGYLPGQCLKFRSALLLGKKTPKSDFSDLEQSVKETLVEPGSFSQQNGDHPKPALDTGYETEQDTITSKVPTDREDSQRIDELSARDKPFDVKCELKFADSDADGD

[12] = target: T3, HuCD100-Fc (in-house prepared); assay: FACS blocking; HuPlexin-B1-HEK293, FIG. 12B
[13] = target: T6, HuCD100-His (human, UniProt Q92854 22-734); assay: ELISA; FIG. 5D
[14] = target: T3, HuCD100-Fc (in-house prepared); assay: FACS blocking; FIG. 8B, blocking of binding to HuPlexin-B2-HEK293
[15] = target: CynoCD100-His (cynomolgus monkey); assay: ELISA; FIG. 5F
[16] = target: T5, full-length mouse CD100 protein …; assay: FACS
[17] = target: T6, HuCD100-His; assay: ELISA
[18] = target: T2, MusCD100-His; assay: ELISA
[19] = target: CynoCD100-His (cynomolgus monkey); assay: ELISA
[20] = target: T7, cynomolgus monkey PD-L1 on cells (cynomolgus monkey, UniProt G7PSE7 19-290); assay: FACS binding
[21] = target: CynoCD100-HEK293 (cynomolgus monkey); assay: FACS; remark: listed apart in the source
[22] = target: CynoCD100-His (cynomolgus monkey); assay: ELISA; FIG. 5C
[23] = target: T7, cynomolgus monkey PD-L1 on cells; assay: FACS binding; remark: listed apart in the source

T7 sequence (G7PSE7 entry or part of it): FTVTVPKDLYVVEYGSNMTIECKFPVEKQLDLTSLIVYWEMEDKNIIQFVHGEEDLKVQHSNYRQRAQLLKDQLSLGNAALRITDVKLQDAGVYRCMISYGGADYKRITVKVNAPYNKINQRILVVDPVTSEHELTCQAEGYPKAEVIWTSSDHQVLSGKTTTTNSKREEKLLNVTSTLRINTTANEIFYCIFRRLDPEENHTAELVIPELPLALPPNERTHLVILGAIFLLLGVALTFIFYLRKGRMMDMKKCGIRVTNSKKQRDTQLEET

EC50 [1]: 0.754 nM
EC50 [2]: 0.374 nM
EC50 [3]: 59.4 nM
IC50 [4]: 1.06 nM
IC50 [5]: 9.86 nM
IC50 [6]: ~4.24 nM
EC50 [7]: 0.579 nM
EC50 [8]: 0.327 nM
EC50 [9]: 0.367 nM
EC50 [10]: 0.467 nM
EC50 [11]: 1.15 nM
IC50 [12]: 0.837 nM
EC50 [13]: 0.0452 nM
IC50 [14]: 2.48 nM
EC50 [15]: 0.0512 nM
EC50 [16]: 0.945 nM
B1: A31 (antibody, V domains shown)
VH: EVQLVESGGGLVQPEGSLRLSCAASGFPLDYYAIGWFRQAPGKEREGVSCIISGGSTKYSASVKGRFTISRDSANNTVYLQMNSLKPEDTAVYFCAVSWSCDLFPRDTYGWDAWGQGTLVTVSS

EC50 [17]: 0.202 nM
EC50 [18]: 0.23 nM
EC50 [1]: 0.356 nM
EC50 [19]: 0.131 nM
IC50 [5]: 4.84 nM
IC50 [6]: 5.43 nM
EC50 [9]: 0.413 nM
EC50 [10]: 0.504 nM
EC50 [11]: 1.78 nM
IC50 [12]: 0.8 nM
B2: A31-VHH1 (antibody, V domains shown)
VH: EVQLVESGGGLVQPEGSLRLSCAASGFPLDYYAIGWFRQAPGKEREGVSCIISGGSTKYSASVKGRFTISRDSAKNTVYLQMNSLRAEDTAVYFCAVSWSCDLFPRDTYGWDAWGQGTLVTVSS

EC50 [20]: 0.988 µg/mL
B3: Avelumab (antibody, V domains shown)
VH: EVQLLESGGGLVQPGGSLRLSCAASGFTFSSYIMMWVRQAPGKGLEWVSSIYPSGGITFYADTVKGRFTISRDNSKNTLYLQMNSLRAEDTAVYYCARIKLGTVTTVDYWGQGTLVTVSS
VL: QSALTQPASVSGSPGQSITISCTGTSSDVGGYNYVSWYQQHPGKAPKLMIYDVSNRPSGVSNRFSGSKSGNTASLTISGLQAEDEADYYCSSYTSSSTRVFGTGTKVTVLG

EC50 [19]: 0.743 nM
EC50 [21]: 0.516 nM
B4: A9-VHH2 (antibody, V domains shown)
VH: QVQLVESGGGLVQAGGSLRLSCAASGFSLDYYAIGWFRQAPGKEREEVSCISSSGGSTDYADSVKGRFTISRAYAKVYLQMNSLRAEDTAVYYCAAGVSGSVCPPLIGAYWGQGTLVTVSS

EC50 [19]: 0.169 nM
EC50 [21]: 0.551 nM
B5: A9-VHH1 (antibody, V domains shown)
VH: QVQLVESGGGLVQPGGSLRLSCAASGFSLDYYAIGWFRQAPGKEREEVSCISSSGGSTDYADSVKGRFTISRAYAKVYLQMNSLKPEDTAVYYCAAGVSGSVCPPLIGAYWGQGTLVTVSS

EC50 [22]: 0.178 nM
EC50 [7]: 0.776 nM
EC50 [21]: 0.47 nM
B6: A9 (antibody, V domains shown)
VH: QVQLVESGGGLVQAGGSLRLSCAASGFSLDYYAIGWFRQAPGKEREEVSCISSSGGSTDYADSVKGRFTISRAYAKVYLQMNSLKPEDTAVYYCAAGVSGSVCPPLIGAYWGQGTQVTVSS

EC50 [19]: 1.31 nM
EC50 [21]: 0.835 nM
B7: A9-VHH3 (antibody, V domains shown)
VH: QVQLVESGGGLVQAGGSLRLSCAASGFSLDYYAIGWFRQAPGKGLEEVSCISSSGGSTDYADSVKGRFTISRAYAKVYLQMNSLRAEDTAVYYCAAGVSGSVCPPLIGAYWGQGTLVTVSS

EC50 [23]: 0.242 µg/mL
B8: m18 (antibody, V domains shown)
VH: EVQLVESGGGLVQPGGSLRLSCAASRTDSNIHGMHWYRQAPGKGREWVGMIFIDGNTIVTDSVKGRFTISRDNAKNTLYLQMNTLRAEDTAVYYCAADSRGYGRAWGQGTTVTVSS
